T1: human Nectin-4 on cells (human, UniProt Q96NY8 32-510)
T1 construct: whole, on cells; also called HEK293 cells expressing human Nectin-4; T47D cells that express human Nectin-4
T1 sequence (looked up): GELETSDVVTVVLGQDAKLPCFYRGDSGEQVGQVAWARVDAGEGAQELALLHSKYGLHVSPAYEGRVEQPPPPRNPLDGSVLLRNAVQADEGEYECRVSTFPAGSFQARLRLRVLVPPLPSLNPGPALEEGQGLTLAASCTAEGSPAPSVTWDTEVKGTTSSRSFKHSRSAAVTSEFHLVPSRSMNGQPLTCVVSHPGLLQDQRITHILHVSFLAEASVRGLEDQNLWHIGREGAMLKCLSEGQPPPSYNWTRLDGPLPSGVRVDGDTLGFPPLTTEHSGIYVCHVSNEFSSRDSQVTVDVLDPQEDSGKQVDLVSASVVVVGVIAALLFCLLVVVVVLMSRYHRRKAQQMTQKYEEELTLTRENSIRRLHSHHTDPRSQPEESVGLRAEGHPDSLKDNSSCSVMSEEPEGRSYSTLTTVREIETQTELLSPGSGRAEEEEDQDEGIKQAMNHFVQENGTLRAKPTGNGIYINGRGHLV

T2: huNectin4-His (human, UniProt Q96NY8 32-349)
T2 construct: Immobilized on the SPR chip; also called humanNectin4; human Nectin4; not shown: His tag
T2 sequence (looked up): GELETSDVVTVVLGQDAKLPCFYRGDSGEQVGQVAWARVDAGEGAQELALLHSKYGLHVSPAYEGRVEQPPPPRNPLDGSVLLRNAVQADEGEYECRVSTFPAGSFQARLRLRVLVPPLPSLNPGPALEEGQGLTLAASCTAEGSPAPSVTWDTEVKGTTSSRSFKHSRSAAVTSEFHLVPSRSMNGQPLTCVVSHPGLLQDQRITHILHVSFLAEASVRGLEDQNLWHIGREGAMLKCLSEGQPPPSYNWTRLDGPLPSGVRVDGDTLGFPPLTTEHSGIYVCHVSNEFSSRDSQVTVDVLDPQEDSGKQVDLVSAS

T3: recombinant human Nectin4 antigen (human, UniProt Q96NY8 32-349)
T3 construct: construct not described
T3 sequence (looked up): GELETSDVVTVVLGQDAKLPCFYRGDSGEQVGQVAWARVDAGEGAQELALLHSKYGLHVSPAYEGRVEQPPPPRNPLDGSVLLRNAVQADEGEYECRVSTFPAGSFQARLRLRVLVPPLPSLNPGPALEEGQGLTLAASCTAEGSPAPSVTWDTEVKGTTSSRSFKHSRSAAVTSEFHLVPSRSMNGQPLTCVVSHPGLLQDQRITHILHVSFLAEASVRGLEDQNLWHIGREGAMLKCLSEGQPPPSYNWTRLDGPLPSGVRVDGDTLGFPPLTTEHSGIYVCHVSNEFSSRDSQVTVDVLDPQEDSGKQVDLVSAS


How the values were obtained:
human Nectin-4 on cells [1] = molecular target: T1, human Nectin-4 on cells; assay: FACS, T47D cells
huNectin4-His = molecular target: T2, huNectin4-His; assay: SPR, huNectin4-His immobilized, pH 7.4
Method: Binding kinetics of anti-Nectin4 antibodies were measured by surface plasmon resonance using a SPR2/4 instrument (Sierra Sensors, Hamburg, Germany) and flat amine sensor chips. The SPR sensor contained four flow cells (FC1-FC4), each of which was addressed individually or in groups. huNectin4-His was immobilized in FC2, and cynoNectin4-mFc in FC4. No protein was immobilized in FC1 and FC3 which were used as control surfaces for FC2 and FC4, respectively.
All injections were done at a flow rate of 25 μL/min at 25° C. The sensor surface was activated with 1-ethyl-3-(3-dimethylaminopropyl)-carbodiimide (EDC) and N-hydroxysuccinimide (NHS) (200 mM/50 mM) for 480 seconds. HuNectin4-His (2 μg/mL in 10 mM NaAc, pH4.5) was injected for 480s and the surface was inactivated by injecting 1M ethanolamine-HCl for 480s. CynoNectin4 was immobilized using the same conditions as described for huNectin4-His, except that the cynoNectin4 was diluted into 10 mM NaAc buffer having pH 5.0. The control surface was activated and deactivated using the same conditions, but without injecting protein. PBST buffer (PBS pH 7.4 with 0.05% TWEEN20™) was used as running buffer for the surface preparation. The running solution was switched to PBST with 30 mM sodium bicarbonate with the pH adjusted as indicated in the figures before the analyte injections. The instrument was equilibrated with the running solution for one hour before the first analyte injection.
The off-rate was measured for 360s. The chip surface was regenerated after each cycle of interaction analysis by injecting 6 μL of 10 mM glycine (pH 2.0). Flow cells 1 and 3 without immobilized protein were used as control surfaces for reference subtraction.

human Nectin-4 on cells [2] = molecular target: T1, human Nectin-4 on cells; assay: FACS, T47D cells; remark: listed apart in the source
human Nectin-4 on cells [3] = molecular target: T1, human Nectin-4 on cells; assay: FACS, HEK293 cells expressing human Nectin-4
Method: FACS analysis was carried out using HEK293 cells expressing human Nectin-4.

human Nectin-4 on cells [4] = molecular target: T1, human Nectin-4 on cells; assay: cell-based or functional assay
[5] = molecular target: T3, recombinant human Nectin4 antigen; assay: pH range ELISA, 30 ng/mL, pH of 50% binding activity
Method: 1) Coat ELISA plates with 100 μL of 1 μg/mL recombinant human Nectin4 antigen in carbonate-bicarbonate coating buffer [0462] 2) Cover plates with sealing film and incubate overnight at 4° C. […] 3) Decant plates and tap out residual liquid on a stack of paper towels [0464] 4) Wash wells twice by dispensing 200 μL of various pH incubation buffer to the wells and completely aspirate the contents [0465] 5) Add 200 μL of various pH incubation buffers (pH5.5, 6.0, 6.2, 6.5, 6.7, 7.0 and 7.4) to the wells. Cover with sealing film and place the plate onto a plate shaker (set to 200 rpm) for 60 minutes at room temperature [0466] 6) Decant plates and tap out residual liquid on a stack of paper towels [0467] 7) Serially dilute test substances in various pH incubation buffers (pH5.5, 6.0, 6.2, 6.5, 6.7, 7.0 and 7.4) to 30 ng/mL [0468] 8) Add 100 μL/well of diluted test substances to the plates [0469] 9) Cover with sealing film and place the plates onto a plate shaker (set to 200 rpm) for 60 minutes at room temperature. [0470] 10) Decant plates and tap out residual liquid on a stack of paper towels. […] 12) Dilute the HRP secondary antibody at 1:2500 in various pH incubation buffers (pH5.5, 6.0, 6.2, 6.5, 6.7, 7.0 and 7.4) [0473] 13) Add 100 μL HRP secondary antibody diluted in various pH incubation buffers (pH5.5, 6.0, 6.2, 6.5, 6.7, 7.0 and 7.4) to each well. […] 14) Cover with sealing film and place the plates onto a plate shaker (set to 200 rpm) for 60 minutes at room temperature. [0475] 15) Decant plates and tap out residual liquid on a stack of paper towels. […] 16) Wash wells three times by dispensing 200 μL of various pH wash buffer (pH5.5, 6.0, 6.2, 6.5, 6.7, 7.0 and 7.4) to the wells and completely aspirating the contents [0477] 17) Dispense 50 μL per well of the TMB substrate solution into all wells of plates.

Binder | Ratio (pH 7.4/6.0) of EC50 (human Nectin-4 on cells [1]) | Kd (huNectin4-His) [nM] | Ratio (pH 7.4/6.0) of EC50 (human Nectin-4 on cells [2]) | Ratio (pH 7.4/6.0) of EC50 (human Nectin-4 on cells [3]) | koff (huNectin4-His) [s⁻¹] | kon (huNectin4-His) [M⁻¹ s⁻¹] | Ratio (pH 7.4/6.0) of cell killing EC50 (human Nectin-4 on cells [4]) | pH inflection point [5] [pH]
BAP-143-wildtype (antibody, V domains shown, 150 kDa used in SPR; also called BAP143-00-00; benchmark (BM)) VH: EVQLVESGGGLVQPGGSLRLSCAASGFTFSSYNMNWVRQAPGKGLEWVSYISSSSSTIYYADSVKGRFTISRDNAKNSLSLQMNSLRDEDTAVYYCARAYYYGMDVWGQGTTVTVSS VL: DIQMTQSPSSVSASVGDRVTITCRASQGISGWLAWYQQKPGKAPKFLIYAASTLQSGVPSRFSGSGSGTDFTLTISSLQPEDFATYYCQQANSFPPTFGGGTKVEIK | 0.9 | 0.943 | 1.2 | 1.2 | – | – | – | –
BAP-143-06-24-16 (antibody, V domains shown, Used as a conjugate with a linker payload (CAB ADC)) VH: EVQLVQSGAEVKKPGATVKISCKVSGFTFSSYNMNWIRQSPSRGLEWLGYISSSSSTIYYADSVKGRFTISRDNSKNTLYLQMNSLRAEDTAVYYCARAYYYGDDVWGQGTLVTVSS VL: DIQMTQSPSSVSASVGDRVTITCHASQGISGWLAWYQQKPGKAPKFLIYAASTLQSGVPSRFSGSGSGTDFTLTISSLQPEDFATYYCQQANSFPPTFGGGTKVEIK | – | – | 2.9 | – | – | – | – | –
BAP-143-06-33-03 (antibody, V domains shown, Used as a conjugate with a linker payload (CAB ADC)) VH: QVQLVQSGAEVKKPGASVKVSCKASGFTFSSYNMNWVRQARGQRLEWIGYISSSSSTIYYADSVKGRFTISRDNSKNTLYLQMNSLRAEDTAVYYCARAYYYGMDKWGQGTLVTVSS VL: DIQMTQSPSSVSASVGDRVTITCRASQGISGWLAWYQQKPGKAPKFLIYAASTLQSGVPSRFSGSGSGTDFTLTISSLQPEDFATYYCQQANSEPPTFGGGTKVEIK | – | – | 14.8 | – | – | – | – | –
BAP-143-00-03 (antibody, V domains shown, Used as a conjugate with a linker payload (CAB ADC)) VH: EVQLVESGGGLVQPGGSLRLSCAASGFTFSSYNMNWVRQAPGKGLEWVSYISSSSSTIYYADSVKGRFTISRDNAKNSLSLQMNSLRDEDTAVYYCARAYYYGMDVWGQGTTVTVSS VL: DIQMTQSPSSVSASVGDRVTITCRASQGISGWLAWYQQKPGKAPKFLIYAASTLQSGVPSRFSGSGSGTDFTLTISSLQPEDFATYYCQQANSFPDTFGGGTKVEIK | 3.6 | 2.45 | – | 2 | 0.0032 | 1.31e+06 | 2.6 | 6.71
BAP-143-00-02 (antibody, V domains shown, Used as a conjugate with a linker payload (CAB ADC)) VH: EVQLVESGGGLVQPGGSLRLSCAASGFTFSSYNMNWVRQAPGKGLEWVSYISSSSSTIYYADSVKGRFTISRDNAKNSLSLQMNSLRDEDTAVYYCARAYYYGMDVWGQGTTVTVSS VL: DIQMTQSPSSVSASVGDRVTITCRASQGISGWLAWYQQKPGKAPKFLIYAASTLQSGVPSRFSGSGSGTDFTLTISSLQPEDFATYYCQQANSEPPTFGGGTKVEIK | 2.9 | – | – | 1.6 | – | – | 1.7 | 6.7
BAP-143-00-04 (antibody, V domains shown, Used as a conjugate with a linker payload (CAB ADC)) VH: EVQLVESGGGLVQPGGSLRLSCAASGFTFSSYNDNWVRQAPGKGLEWVSYISSSSSTIYYADSVKGRFTISRDNAKNSLSLQMNSLRDEDTAVYYCARAYYYGMDVWGQGTTVTVSS VL: DIQMTQSPSSVSASVGDRVTITCRASQGISGWLAWYQQKPGKAPKFLIYAASTLQSGVPSRFSGSGSGTDFTLTISSLQPEDFATYYCQQANSFPPTFGGGTKVEIK | 2.1 | 1.42 | – | 2.1 | 0.00525 | 3.71e+06 | 2.7 | 6.81
BAP-143-00-05 (antibody, V domains shown, Used as a conjugate with a linker payload (CAB ADC)) VH: EVQLVESGGGLVQPGGSLRLSCAASGFTFSSYNMNWVRQAPGKGLEWVSYISSSSSTIYYADSVKGRFTISRDNAKNSLSLQMNSLRDEDTAVYYCAEAYYYGMDVWGQGTTVTVSS VL: DIQMTQSPSSVSASVGDRVTITCRASQGISGWLAWYQQKPGKAPKFLIYAASTLQSGVPSRFSGSGSGTDFTLTISSLQPEDFATYYCQQANSFPPTFGGGTKVEIK | 2.4 | 5.09 | – | 1.7 | 0.0062 | 1.22e+06 | 2 | 6.99
BAP-143-07-03-12 (antibody, V domains shown, Used as a conjugate with a linker payload (CAB ADC)) VH: EVQLVESGGGLVQPGGSLRLSCAASGFTFSSYNMNWVRQAPGKGLEWVSYISSSSSTIYYADSVKGRFTISRDNAKNSLSLQMNSLRDEDTAVYYCARAYYYGMDKWGQGTTVTVSS VL: DIQMTQSPSSVSASVGDRVTITCRASQGISGWEAWYQQKPGKAPKFLIYAASTLQSGVPSRFSGSGSGTDFTLTISSLQPEDFATYYCQQANSFPPTFGGGTKVEIK | – | – | 4.5 | – | – | – | – | –
BAP-143-06-33-16 (antibody, V domains shown, Used as a conjugate with a linker payload (CAB ADC)) VH: EVQLVQSGAEVKKPGATVKISCKVSGFTFSSYNMNWIRQSPSRGLEWLGYISSSSSTIYYADSVKGRFTISRDNSKNTLYLQMNSLRAEDTAVYYCARAYYYGDDVWGQGTLVTVSS VL: DIQMTQSPSSVSASVGDRVTITCRASQGISGWEAWYQQKPGKAPKFLIYAASTLQSGVPSRFSGSGSGTDFTLTISSLQPEDFATYYCQQANSFPPTFGGGTKVEIK | – | – | 3.4 | – | – | – | – | –

Source: patent US20230235054A1 (BIOATLA, published 2023)
